Measured values reported in US20170240629A1 (Hoffmann-La Roche, published 2017).

Key:
human PDGF-BB [1] = molecular target: T1, human PDGF-BB (human, UniProt P01127 82-190); assay: SPR; apparent KD** of the IgG
T1 construct: also called huPDGF-BB

human PDGF-BB [2] = molecular target: T1, human PDGF-BB; assay: SPR (BIAcore T200) kinetic screening; PDGF-BB coupled on C1 chip, antibody injected
human PDGF-BB [3] = molecular target: T1, human PDGF-BB; assay: cell-based or functional assay
human PDGF-BB [4] = molecular target: T1, human PDGF-BB; assay: SPR; IgG
cynomolgus PDGF-BB [5] = molecular target: T2, cynomolgus PDGF-BB (cynomolgus, UniProt A0A2K5UX81 82-190); assay: SPR (BIAcore B4000); PDGF-BB coupled on C1 chip, antibody injected; apparent value
T2 construct: also called cynPDGF-BB
T2 sequence (A0A2K5UX81 entry or part of it): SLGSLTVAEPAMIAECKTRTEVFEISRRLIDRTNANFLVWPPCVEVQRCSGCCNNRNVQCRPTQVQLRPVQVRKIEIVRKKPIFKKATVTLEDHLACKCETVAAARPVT
Procedure: (§1) The binding analysis was carried out using a surface plasmon resonance spectroscopy-based technology applying a BIAcore B4000 system (GE Healthcare). […] Utilizing a read out time of 180 sec. association phase and 600 sec. dissociation phase the apparent kₐ and apparent kd were calculated. The apparent KD (avidity) was calculated using the BlAcore T200 v2.0 fitting software.

human PDGF-BB [6] = molecular target: T1, human PDGF-BB; assay: as above
Procedure: as §1

cynomolgus PDGF-BB [7] = molecular target: T2, cynomolgus PDGF-BB; assay: SPR (BIAcore B4000); PDGF-BB coupled on C1 chip, antibody injected; apparent KD (avidity)
Procedure: as §1

human PDGF-BB [8] = molecular target: T1, human PDGF-BB; assay: as above
Procedure: as §1

human PDGF-BB [9] = molecular target: T1, human PDGF-BB; assay: competition ELISA; biotinylated human PDGF-BB with antibody on coated Fc-tagged PDGF-BB receptor (competitor)
Procedure: The IC₅₀ was calculated with a four parameter logistic model using GraphPad Prism 6.0 software.

human PDGF-BB [10] = molecular target: T1, human PDGF-BB; assay: cell-based or functional assay; remark: listed apart in the source
murine PDGF-BB = molecular target: T3, murine PDGF-BB (murine, UniProt P31240 82-190); assay: ELISA, antigen coated
T3 construct: also called muPDGF-BB
T3 sequence (P31240 82-190 limits assumed): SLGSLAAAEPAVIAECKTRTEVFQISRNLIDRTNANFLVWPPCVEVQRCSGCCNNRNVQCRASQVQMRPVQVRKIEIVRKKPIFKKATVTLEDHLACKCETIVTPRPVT
Procedure: (§2) The binding analysis was carried out using an enzyme-linked immunosorbent assay (ELISA)-based technology. […] The EC₅₀ was calculated with a four parameter logistic model using GraphPad Prism 6.0 software.

cynomolgus PDGF-BB [11] = molecular target: T2, cynomolgus PDGF-BB; assay: ELISA, antigen coated
Procedure: as §2

rat PDGF-BB = rat PDGF-BB (rat, UniProt Q05028 74-182); assay: ELISA, antigen coated
Chain of rat PDGF-BB (Q05028 74-182 limits assumed): as the sequence (P31240 82-190 limits assumed) above, with I83V, I102V counted along it
Procedure: as §2

human PDGF-BB [12] = molecular target: T1, human PDGF-BB; assay: ELISA, antigen coated
Procedure: as §2

human PDGF-BB [13] = molecular target: T1, human PDGF-BB; assay: SPR; apparent KD* of the Fab
human PDGF-BB [14] = molecular target: T1, human PDGF-BB; assay: SPR; Fab
human PDGF-BB [15] = molecular target: T1, human PDGF-BB; assay: SPR (BIAcore T200); PDGF-BB coupled on CM3 chip, antibody injected (Example 52); parameters: t½: unit not given here
human PDGF-BB [16] = molecular target: T1, human PDGF-BB; assay: SPR (BIAcore T200); PDGF-BB coupled on CM3 chip, Fab injected

T1 sequence (P01127 82-190 limits assumed): as the sequence (A0A2K5UX81 entry or part of it) above, with V7I counted along it

Binder | Kd (human PDGF-BB [1]) [nM] | koff (human PDGF-BB [2]) [s⁻¹] | t½ (human PDGF-BB [2]) [h] | IC50 Proliferation 3T3 (human PDGF-BB [3]) [µg/mL] | T½ (human PDGF-BB [4]) [h] | koff (cynomolgus PDGF-BB [5]) [s⁻¹] | kon (cynomolgus PDGF-BB [5]) [M⁻¹ s⁻¹] | koff (human PDGF-BB [6]) [s⁻¹] | kon (human PDGF-BB [6]) [M⁻¹ s⁻¹] | Kd (cynomolgus PDGF-BB [7]) [nM] | Kd (human PDGF-BB [8]) [nM] | IC50 (human PDGF-BB [9]) [µg/mL] | Balb-C3T3 Proliferation, IC50 (human PDGF-BB [10]) [nM] | Pericytes Migration, IC50 (human PDGF-BB [10]) [nM] | Pericytes Proliferation, IC50 (human PDGF-BB [10]) [nM] | EC50 (murine PDGF-BB) [µg/mL] | EC50 (cynomolgus PDGF-BB [11]) [µg/mL] | EC50 (rat PDGF-BB) [µg/mL] | EC50 (human PDGF-BB [12]) [µg/mL] | other results
antibody 0085 (antibody, V domains shown, Human antibody from a human Ig locus transgenic rabbit) VH: EVQLVESGGGLVQPGGSLRLSCAASGFTFSSYWMSWVRQAPEKGLEWVSTISDGGGLTYYADSVKGRFTISRDNAKNSLYLQMNSLRAEDTAVYYCAESGGYTDWLFGYWGQGTLVTVSS VL: not shown | 0.023 | 0.000102 | 1.9 | 0.0318 | 2.43 | 4.52e-05 | 940000 | 4.4e-05 | 930000 | 0.0478 | 0.0476 | 0.0178 | 0.06 | 0.15 | 0.11 | 0.025 | 0.0153 | 0.016 | 0.00755 | –
antibody 0106 (Fab, V domains shown) VH: EVQLVESGGGLVQPGGSLRLSCAASGFTFSSYWMSWVRQAPEKGLEWVSTISDGGGLTYYADSVKGRFTISRDNAKNSLYLQMNSLRAEDTAVYYCAESGGYTDWLFGYWGQGTLVTVSS VL: not shown | – | – | – | – | – | – | – | – | – | – | – | – | – | – | – | – | – | – | – | Kd (human PDGF-BB [13]): 2 nM; T½ (human PDGF-BB [14]): 0.515 h; Kd (human PDGF-BB [15]): 1 nM; koff (human PDGF-BB [15]): 0.000291 s⁻¹; kon (human PDGF-BB [15]): 294000 M⁻¹ s⁻¹; t½ (human PDGF-BB [15]): 40; Kd (human PDGF-BB [16]): 2 nM; koff (human PDGF-BB [16]): 0.000374 s⁻¹; kon (human PDGF-BB [16]): 202000 M⁻¹ s⁻¹; t½ (human PDGF-BB [16]): 0.515 h
antibody 0086 (antibody, V domains shown, Human antibody from a human Ig locus transgenic rabbit) VH: EVQLVESGGGLVQPGGSLRLSCAASGFTFSSYWMSWVRQAPEKGLEWVSTISDGGGLTYYADSVKGRFTISRDNAKNSLYLQMNSLRAEDTAVYYCAESGGYTDWLFGYWGQGTLVTVSS VL: not shown | 0.03 | 7.93e-05 | 2.43 | 0.056 | 0.684 | 1.84e-05 | 1.04e+06 | 2.3e-05 | 1.04e+06 | 0.0178 | 0.0218 | 0.0117 | 0.11 | 0.09 | 0.09 | 0.0141 | 0.0162 | 0.0106 | 0.012 | –
